According to patent publication US20170281716:

Experiments:
[1] = target: T1, DEVD-modified IL-36γ, full length
T1 sequence (Q9NZH8 whole entry, species assumed, looked up): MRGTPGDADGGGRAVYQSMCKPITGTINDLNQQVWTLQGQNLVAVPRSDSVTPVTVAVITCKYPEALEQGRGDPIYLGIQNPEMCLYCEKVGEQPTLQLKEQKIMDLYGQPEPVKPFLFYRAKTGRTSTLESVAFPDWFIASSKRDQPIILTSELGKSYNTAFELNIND

[2] = target: T2, DEVD-modified IL-36β, full length unprocessed
T2 sequence (Q9NZH7 whole entry, species assumed, looked up): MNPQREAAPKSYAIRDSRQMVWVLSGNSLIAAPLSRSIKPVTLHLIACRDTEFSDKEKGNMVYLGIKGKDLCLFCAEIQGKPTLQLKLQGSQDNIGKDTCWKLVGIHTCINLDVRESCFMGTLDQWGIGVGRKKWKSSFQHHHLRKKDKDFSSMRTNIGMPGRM

[3] = target: T3, Full-length poly-histidine-tagged human IL-36β
T3 chain: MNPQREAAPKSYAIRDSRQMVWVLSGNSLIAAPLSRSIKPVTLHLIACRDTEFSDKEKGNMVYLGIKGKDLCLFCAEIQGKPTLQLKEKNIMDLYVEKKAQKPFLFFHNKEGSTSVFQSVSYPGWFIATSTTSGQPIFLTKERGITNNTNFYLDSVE

[4] = target: T4, biotin-FLF-CMK
T4 chain: FLF

[5] = target: T5, endogenous IL-36γ
T5 chain: T1 sequence (Q9NZH8 whole entry, species assumed, looked up)

B1: Recombinant poly-histidine-tagged caspase-3 (protein)
chain: SGISLDNSYKMDYPEMGLCIIINNKNFHKSTGMTSRSGTDVDAANLRETFRNLKYEVRNKNDLTREEIVELMRDVSKEDHSKRSSFVCVLLSHGEEGIIFGTNGPVDLKKITNFFRGDRCRSLTGKPKLFIIQACRGTELDCGIETDSGVDDDMACHKIPVEADFLYAYSTAPGYYSWRNSKDGSWFIQSLCAMLKQYADKLEFMHILTRVNRKVATEFESFSFDATFHAKKQIPCIVSMLTKELYFYH
B1 was tested, and the “proteolytic processing, immunoblot” value [1] was “DEVD-modified IL-36β (IL-36b^DEVD) and DEVD-modified IL-36γ (IL-36g^DEVD) was readily processed by caspase-3” and the “proteolytic processing, immunoblot” value [2] was “DEVD-modified IL-36β (IL-36b^DEVD) and DEVD-modified IL-36γ (IL-36g^DEVD) was readily processed by caspase-3”.

B2: purified cathepsin K (protein)
chain: APDSVDYRKKGYVTPVKNQGQCGSCWAFSSVGALEGQLKKKTGKLLNLSPQNLVDCVSENDGCGGGYMTNAFQYVQKNRGIDSEDAYPYVGQEESCMYNPTGKAAKCRGYREIPEGNEKALKRAVARVGPVSVAIDASLTSFQFYSKGVYYDESCNSDNLNHAVLAVGYGIQKGNKHWIIKNSWGENWGNKGYILMARNKNNACGIANLASFPKM
With B2 the “cleavage and activation of IL-36β” value [3] was “cathepsin K, a protease predominantly expressed in osteoclasts, can cleave and activate IL-36β (beta) at the same residue as Cathepsin G (NPQR5 EAAP)”.

B3: Purified Neutrophil-derived Cathepsin G (protein)
chain: IIGGRESRPHSRPYMAYLQIQSPAGQSRCGGFLVREDFVLTAAHCWGSNINVTLGAHNIQRRENTQQHITARRAIRHPQYNQRTIQNDIMLLQLSRRVRRNRNVNPVALPRAQEGLRPGTLCTVAGWGRVSMRRGTDTLREVQLRVQRDRQCLRIFGSYDPRRQICVGDRRERKAAFKGDSGGPLLCNNVAHGIVSYGKSSGVPPEVFTRVSSFLPWIRTTMRS
For B3, the “depletion of cathepsin G activity from degranulates with streptavidin agarose (FLF-sBzl hydrolysis; IL-36β bioassay)” value [4] was “selective depletion of cathepsin G activity from PMA-treated neutrophil degranulates using biotin-FLF-CMK largely eliminated activation of IL-36b but not of IL-36g”.

B4: Purified Neutrophil-derived Elastase (protein)
chain: IVGGRRARPHAWPFMVSLQLRGGHFCGATLIAPNFVMSAAHCVANVNVRAVRVVLGAHNLSRREPTRQVFAVQRIFENGYDPVNLLNDIVILQLNGSATINANVQVAQLPAQGRRLGNGVQCLAMGWGLLGRNRGIASVLQELNVTVVTSLCRRSNVCTLVRGRQAGVCFGDSGSPLVCNGLIHGIASFVRGGCASGLYPDAFAPVAQFVNWIDSIIQ
In the case of B4, the “proteolysis of endogenous IL-36γ from keratinocyte extracts and supernatants, immunoblot” value [5] is reported as “IL-36γ incubated with elastase resulted in robust IL-36γ proteolysis both intracellularly as well as extracellularly” and the “proteolysis of endogenous IL-36γ in psoriatic skin homogenates, immunoblot” value [5] is reported as “incubating these psoriatic homogenates with neutrophil elastase resulted in IL-36γ proteolysis”.
